From PMC10238501
Several values for one entry are separate records, joined by “and”; a condition that tells them apart may be missing. Identical values can stand only once.

Experiments:
Assay in all cases: fluorescence anisotropy
[1] = biological target: Gal4LOV(SK22) V416L (/ Avena sativa (chimera)) (UniProt P04386); settings: 20 mM HEPES pH 7.5, 50 mM NaCl, 50 ug/mL BSA, 5% Ficoll 400; 2 nM DNA; temperature not stated
[2] = biological target: Gal4LOV(SK22) (Gal4 DBD with AsLOV2 inserted between Ser22 and Lys23, no VP64) (/ Avena sativa (chimera)) (UniProt P04386); settings: 20 mM HEPES pH 7.5, 50 mM NaCl, 50 ug/mL BSA, 5% Ficoll 400, 2 nM DNA, temperature not stated
[3] = biological target: Gal4LOV(SK22) C450V (/ Avena sativa (chimera)) (UniProt P04386); settings: dark; 20 mM HEPES pH 7.5, 50 mM NaCl, 50 ug/mL BSA, 5% Ficoll 400; 2 nM DNA; temperature not stated
[4] = biological target: Gal4LOV(SK22) I532E/A536E (/ Avena sativa (chimera)) (UniProt P04386); settings: dark; 20 mM HEPES pH 7.5, 50 mM NaCl, 50 ug/mL BSA, 5% Ficoll 400; 2 nM DNA; temperature not stated

## TCTTCGGAGGGCTGTCACCCGAATATA (double strand) [1xUAS 27-bp DNA]
[1]
  Kd: 8.6 nM and 16.6 nM
[2]
  Kd: 4.2 nM
[2]; dark
  Kd: 6.4 nM
[3]
  Kd: 8.8 nM
[4]
  Kd: 13.4 nM
